From publication PMC10618235 come the findings set out here.

Like-named read-outs stand apart in the source and are kept apart here.

The target in series [1] is FBXL6 (F-Box and Leucine Rich Repeat Protein 6) (UniProt Q8N531). Kind of series: co-IP with anti-Flag IgG, blot. The settings on record: reference: wild-type TKT; sites T287.

As for “TKT (transketolase) (from UniProt P29401) TKT T287A”, the “binding against the reference” value in series [1] is on record as “lost”.
In the case of “TKT (transketolase): VRK2 inhibition (IC261, 5 μM) or siVRK2”, where the note is “phosphorylation at T287”, the other result is “decreases”.
Take TKT (transketolase): K319A: under “ubiquitination at K319”, the enzymatic_activity entry was “abolishes”, the localisation_or_trafficking entry is given as “changes” and the other entry was “decreases”.
Turning to TKT (transketolase): K16A, for the setting “ubiquitination at K16”, the enzymatic_activity entry is “abolishes”, the localisation_or_trafficking result is “changes” and the other result is on record as “decreases”.
Consider TKT (transketolase): T287A, for which, where the note is “phosphorylation at T287”, the enzymatic_activity entry is “decreases”, the localisation_or_trafficking result was “changes” and the other result was “decreases”.
